B1: SNAP91 (parent)
chain: FATASAAVPVSTSKPSSDLLDLQP
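Also: lentivirally expressed fusions sorted by FACS into six bins by GFP to DsRed ratio, PSI derived from sequencing read proportions per bin multiplied by bin number.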

Variants of: B1
Experiment: protein stability index of a GFP-peptide fusion (GPS, HEK-293T) (PSI 1-6); higher = more stable
Conditions: c terminus: a fixed tail appended
Variant FATASAAVMVSTSKPSSDLLDLQP has a protein stability index of 2.29. FATASAAVNVSTSKPSSDLLDLQP gave a protein stability index of 3.75. Variant FATASAAVSVSTSKPSSDLLDLQP has a protein stability index of 3.26. FATASAAVAVSTSKPSSDLLDLQP showed a protein stability index of 2.96. For FATASAAVVVSTSKPSSDLLDLQP, the protein stability index was 2.24. In the case of FATASAAVQVSTSKPSSDLLDLQP, the protein stability index is reported as 3.31. In the case of FATASAAVGVSTSKPSSDLLDLQP, the protein stability index is reported as 2.3. With FATASAAVCVSTSKPSSDLLDLQP the protein stability index was 2.27. Variant FATASAAVLVSTSKPSSDLLDLQP has a protein stability index of 1.92. With FATASGAVPVSTSKPSSDLLDLQP the protein stability index was 3.5. Variant FATASEAVPVSTSKPSSDLLDLQP has a protein stability index of 4.31. In the case of FATASVAVPVSTSKPSSDLLDLQP, the protein stability index is reported as 2.98. FATASTAVPVSTSKPSSDLLDLQP showed a protein stability index of 3.5. Variant FATASSAVPVSTSKPSSDLLDLQP has a protein stability index of 3.78. In the case of FATASKAVPVSTSKPSSDLLDLQP, the protein stability index is reported as 4.23. FATASWAVPVSTSKPSSDLLDLQP showed a protein stability index of 4.07. In the case of FATASRAVPVSTSKPSSDLLDLQP, the protein stability index is reported as 3.31. Variant FATASPAVPVSTSKPSSDLLDLQP has a protein stability index of 3.54. FATASNAVPVSTSKPSSDLLDLQP gave a protein stability index of 4.69. With FATASCAVPVSTSKPSSDLLDLQP the protein stability index was 2.46. With FATASFAVPVSTSKPSSDLLDLQP the protein stability index was 2.31. With FATASIAVPVSTSKPSSDLLDLQP the protein stability index was 2.41. For FATASQAVPVSTSKPSSDLLDLQP, the protein stability index was 3.67. Variant FATASDAVPVSTSKPSSDLLDLQP has a protein stability index of 4.22. FATASLAVPVSTSKPSSDLLDLQP showed a protein stability index of 2.47. In the case of FATASYAVPVSTSKPSSDLLDLQP, the protein stability index is reported as 1.96. FATASHAVPVSTSKPSSDLLDLQP showed a protein stability index of 3.19. FATASMAVPVSTSKPSSDLLDLQP gave a protein stability index of 2.92. Work on FATYSAAVPVSTSKPSSDLLDLQP yielded a protein stability index of 3.73. For FATNSAAVPVSTSKPSSDLLDLQP, the protein stability index was 3.81. For FATGSAAVPVSTSKPSSDLLDLQP, the protein stability index was 3.63. FATLSAAVPVSTSKPSSDLLDLQP gave a protein stability index of 2.89. FATSSAAVPVSTSKPSSDLLDLQP showed a protein stability index of 3.8. In the case of FATTSAAVPVSTSKPSSDLLDLQP, the protein stability index is reported as 3.72. FATFSAAVPVSTSKPSSDLLDLQP gave a protein stability index of 2.06. FATQSAAVPVSTSKPSSDLLDLQP showed a protein stability index of 3.9. Work on FATCSAAVPVSTSKPSSDLLDLQP yielded a protein stability index of 2.66. Variant FATPSAAVPVSTSKPSSDLLDLQP has a protein stability index of 4.19. With FATRSAAVPVSTSKPSSDLLDLQP the protein stability index was 3.16. With FATISAAVPVSTSKPSSDLLDLQP the protein stability index was 3.04. In the case of FATHSAAVPVSTSKPSSDLLDLQP, the protein stability index is reported as 4.06. FATWSAAVPVSTSKPSSDLLDLQP gave a protein stability index of 1.64. FATDSAAVPVSTSKPSSDLLDLQP showed a protein stability index of 4.72. FATKSAAVPVSTSKPSSDLLDLQP gave a protein stability index of 3.8. FATVSAAVPVSTSKPSSDLLDLQP gave a protein stability index of 3.9. In the case of FATMSAAVPVSTSKPSSDLLDLQP, the protein stability index is reported as 3.31. For FATESAAVPVSTSKPSSDLLDLQP, the protein stability index was 4.57. FAPASAAVPVSTSKPSSDLLDLQP showed a protein stability index of 2.41. FAYASAAVPVSTSKPSSDLLDLQP gave a protein stability index of 1.98. For FAMASAAVPVSTSKPSSDLLDLQP, the protein stability index was 3.16. In the case of FAVASAAVPVSTSKPSSDLLDLQP, the protein stability index is reported as 4.38. FASASAAVPVSTSKPSSDLLDLQP gave a protein stability index of 3.39. Work on FALASAAVPVSTSKPSSDLLDLQP yielded a protein stability index of 3.35. In the case of FANASAAVPVSTSKPSSDLLDLQP, the protein stability index is reported as 3.24. FAWASAAVPVSTSKPSSDLLDLQP showed a protein stability index of 1.64. Variant FAQASAAVPVSTSKPSSDLLDLQP has a protein stability index of 4.15. For FATANAAVPVSTSKPSSDLLDLQP, the protein stability index was 3.66. Variant FATAQAAVPVSTSKPSSDLLDLQP has a protein stability index of 3.38. FATATAAVPVSTSKPSSDLLDLQP gave a protein stability index of 3.73. With FATAMAAVPVSTSKPSSDLLDLQP the protein stability index was 2.83. In the case of FATAGAAVPVSTSKPSSDLLDLQP, the protein stability index is reported as 3.54. For FATAHAAVPVSTSKPSSDLLDLQP, the protein stability index was 3.33. In the case of FATAIAAVPVSTSKPSSDLLDLQP, the protein stability index is reported as 2.8. FATAFAAVPVSTSKPSSDLLDLQP gave a protein stability index of 1.45. In the case of FATARAAVPVSTSKPSSDLLDLQP, the protein stability index is reported as 3.45. For FATAVAAVPVSTSKPSSDLLDLQP, the protein stability index was 3.21. FATAAAAVPVSTSKPSSDLLDLQP gave a protein stability index of 3.46. FATAKAAVPVSTSKPSSDLLDLQP gave a protein stability index of 4.11. Work on FATAWAAVPVSTSKPSSDLLDLQP yielded a protein stability index of 3.73. Work on FATAEAAVPVSTSKPSSDLLDLQP yielded a protein stability index of 4.02. Variant FATALAAVPVSTSKPSSDLLDLQP has a protein stability index of 2.28. Variant FATACAAVPVSTSKPSSDLLDLQP has a protein stability index of 3.02. For FATAPAAVPVSTSKPSSDLLDLQP, the protein stability index was 3.54. For FATADAAVPVSTSKPSSDLLDLQP, the protein stability index was 4.17. For FATAYAAVPVSTSKPSSDLLDLQP, the protein stability index was 1.67. In the case of FATASAAWPVSTSKPSSDLLDLQP, the protein stability index is reported as 1.88. In the case of FATASAAKPVSTSKPSSDLLDLQP, the protein stability index is reported as 4.13. FATASAACPVSTSKPSSDLLDLQP showed a protein stability index of 3.38. FATASAANPVSTSKPSSDLLDLQP showed a protein stability index of 4.32. FATASAAGPVSTSKPSSDLLDLQP gave a protein stability index of 4.52. For FATASAAHPVSTSKPSSDLLDLQP, the protein stability index was 4.27. Work on FATASAAPPVSTSKPSSDLLDLQP yielded a protein stability index of 4.07. FATASAAMPVSTSKPSSDLLDLQP showed a protein stability index of 3.02. With FATASAALPVSTSKPSSDLLDLQP the protein stability index was 3.37. FATASAAAPVSTSKPSSDLLDLQP gave a protein stability index of 3.58. FATASAAEPVSTSKPSSDLLDLQP gave a protein stability index of 3.99. FATASAAIPVSTSKPSSDLLDLQP gave a protein stability index of 3.93. Variant FATASAAQPVSTSKPSSDLLDLQP has a protein stability index of 4.2. For FATASAADPVSTSKPSSDLLDLQP, the protein stability index was 4.64. In the case of FATASAASPVSTSKPSSDLLDLQP, the protein stability index is reported as 3.87. With FATASAARPVSTSKPSSDLLDLQP the protein stability index was 3.79. FATASAATPVSTSKPSSDLLDLQP gave a protein stability index of 4.12. With FATASAAFPVSTSKPSSDLLDLQP the protein stability index was 3.11. With FATASAAYPVSTSKPSSDLLDLQP the protein stability index was 3.09.

— the supplement of paper PMC10567573
